According to paper doi:10.1101/2025.10.01.679551, “Mechanism of phosphoinositide regulation of lysosomal pH via inhibition of CLC-7” (bioRxiv, 2025):
Residue numbers refer to the chain shown, from its start. Names may count otherwise.

B1: human ClC-7 (wild type), C-terminal 6His-tag (natural protein)
chain: MANVSKKVSWSGRDRDDEEAAPLLRRTARPGGGTPLLNGAGPGAARQSPRSALFRVGHMSSVELDDELLDPDMDPPHPFPKEIPHNEKLLSLKYESLDYDNSENQLFLEEERRINHTAFRTVEIKRWVICALIGILTGLVACFIDIVVENLAGLKYRVIKGNIDKFTEKGGLSFSLLLWATLNAAFVLVGSVIVAFIEPVAAGSGIPQIKCFLNGVKIPHVVRLKTLVIKVSGVILSVVGGLAVGKEGPMIHSGSVIAAGISQGRSTSLKRDFKIFEYFRRDTEKRDFVSAGAAAGVSAAFGAPVGGVLFSLEEGASFWNQFLTWRIFFASMISTFTLNFVLSIYHGNMWDLSSPGLINFGRFDSEKMAYTIHEIPVFIAMGVVGGVLGAVFNALNYWLTMFRIRYIHRPCLQVIEAVLVAAVTATVAFVLIYSSRDCQPLQGGSMSYPLQLFCADGEYNSMAAAFFNTPEKSVVSLFHDPPGSYNPLTLGLFTLVYFFLACWTYGLTVSAGVFIPSLLIGAAWGRLFGISLSYLTGAAIWADPGKYALMGAAAQLGGIVRMTLSLTVIMMEATSNVTYGFPIMLVLMTAKIVGDVFIEGLYDMHIQLQSVPFLHWEAPVTSHSLTAREVMSTPVTCLRRREKVGVIVDVLSDTASNHNGFPVVEHADDTQPARLQGLILRSQLIVLLKHKVFVERSNLGLVQRRLRLKDFRDAYPRFPPIQSIHVSQDERECTMDLSEFMNPSPYTVPQEASLPRVFKLFRALGLRHLVVVDNRNQVVGLVTRKDLARYRLGKRGLEELSLAQT
notes: ClC-7 Cl-/H+ antiporter, Homo sapiens, synthesised gene in pLexM; Homodimer; each subunit carries one Ostm1; The cytoplasmic domain is not resolved in the structure without lipid (9G6D); also called wtCLC7; WT-CLC7; source: HEK293F (Freestyle 293F), co-transfected with OSTM1-Flag
B2: human ClC-7 Y715C, C-terminal 6His-tag (natural protein)
chain: B1 chain with Y715C
notes: ClC-7 Cl-/H+ antiporter, Homo sapiens, synthesised gene in pLexM with the patient gain-of-function mutation Y715C; Y715C is a mutation found in human patients; The cytoplasmic domain is not resolved in 9G6E; also called CLC7Y715C-His; source: HEK293F (Freestyle 293F), co-transfected with OSTM1-Flag
B3: human Ostm1, C-terminal Flag-tag (natural protein)
chain: ALPFGSSPHRVFHDLLSEQQLLEVEDLSLSLLQGGGLGPLSLPPDLPDLDPECRELLLDFANSSAELTGCLVRSARPVRLCQTCYPLFQQVVSKMDNISRAAGNTSESQSCARSLLMADRMQIVVILSEFFNTTWQEANCANCLTNNSEELSNSTVYFLNLFNHTLTCFEHNLQGNAHSLLQTKNYSEVCKNCREAYKTLSSLYSEMQKMNELENKAEPGTHLCIDVEDAMNITRKLWSRTFNCSVPCSDTVPVIAVSVFILFLPVVFYLSSFLHSEQKKRKLILPKRLKSSTSFANIQENSN
notes: Ostm1, Homo sapiens, synthesised gene in pLexM; Two copies in the ClC-7/Ostm1 complex, one for each ClC-7 subunit; also called OSTM1-Flag; source: HEK293F (Freestyle 293F), co-transfected with CLC7-His or CLC7Y715C-His; not shown: Flag, C-terminal, kept

Tests used:
[1] = molecular target: the molecule itself; test: cryo-EM structure; ClC-7/Ostm1 complex co-expressed in HEK293F, purified by FLAG affinity and SEC in LMNG/CHS with lipid bought as PI(3,5)P2 added during purification; supplemented with 0.1 % LMNG and 2.5 mM ATP; C2 symmetry
[2] = molecular target: the molecule itself; test: cryo-EM structure; ClC-7/Ostm1 complex co-expressed in HEK293F, purified by FLAG affinity and SEC in LMNG/CHS, no lipid added (apo); C2 symmetry
[3] = molecular target: B1; test: as above; settings: both partners purified
[4] = molecular target: B2; test: as above; settings: both partners purified

Binder: B1
- binding result [1]: binds

Binder: B2
- binding result [2]: binds

Binder: B3
- binding result [3]: binds
- binding result [4]: binds
